Consider 17 molecules from patent publication US20180155451A1 (published 2018).

One experiment has as its target T1, FcγRIIa H (human, UniProt P12318 34-217).
T1 construct: extracellular domain; Soluble extracellular domain with C-terminal His tag, expressed in FreeStyle293 cells; also called FcgRIIa H; 2aH; not shown: C-terminal His tag
T1 sequence (looked up): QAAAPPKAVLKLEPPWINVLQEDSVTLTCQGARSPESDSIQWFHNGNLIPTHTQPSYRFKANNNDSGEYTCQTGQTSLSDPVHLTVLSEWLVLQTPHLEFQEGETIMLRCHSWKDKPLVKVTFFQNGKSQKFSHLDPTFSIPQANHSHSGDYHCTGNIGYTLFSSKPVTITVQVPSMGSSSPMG
Put plainly: SPR (Biacore), antibody captured, FcγR as analyte; relative to HeCon Ab. How it is done:
(§1) The heterodimerized antibodies He Abs in which one of the H chains was introduced with an alteration were assayed for their binding activities to each activating FcγR and inhibitory FcγR according to the method described in Example 4. […] The activating FcγRs in FIGS. 26, 27, 28, and 29 are FcγRIa, FcγRIIa (R), FcγRIIa (H), and FcγRIIIa, respectively.
(§2) Analysis of interaction between objective antibody and the FcγR was carried out using Biacore T100 (GE Healthcare). HBS-EP+ (GE Healthcare) was used as the running buffer, and the measurement temperature was set to 25° C. Chips produced by immobilizing the antigen peptide by the amine coupling method to a Series S Sencor Chip CM5 (GE Healthcare), or alternatively, chips produced by allowing preliminarily biotinylated antigen peptides to interact with and immobilize onto a Series S Sensor Chip SA (certified) (GE Healthcare) were used. Antibodies of interest were captured onto an antigen peptide-immobilized chip, and allowed to interact to each FcγR diluted with running buffer. To regenerate and repeatedly use the chip, the antibodies captured on the chip were washed off by reacting 10 mM glycine-HCl, pH 1.5.

A further experiment deals with T2, FcγRIIb (human, UniProt P31994 43-217).
T2 construct: extracellular domain; Soluble extracellular domain with C-terminal His tag, expressed in FreeStyle293 cells; also called FcgRIIb; 2b; not shown: C-terminal His tag
T2 sequence (looked up): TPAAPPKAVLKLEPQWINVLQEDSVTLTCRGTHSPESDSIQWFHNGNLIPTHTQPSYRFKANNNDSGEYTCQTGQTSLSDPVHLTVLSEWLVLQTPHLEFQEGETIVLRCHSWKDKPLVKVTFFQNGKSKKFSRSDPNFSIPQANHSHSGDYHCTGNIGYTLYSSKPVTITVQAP
The description is as above. On the procedure:
as §1, §2

B1: GpH7-A5/GpH7-B3 variant G237_14T/GpL16-k0 (antibody, human IgG1, kappa)
heavy 1: not shown
heavy 2: not shown
light: DIVMTQSPLSLPVTPGEPASISCQASESLVHSNRNTYLHWYLQKPGQSPQLLIYKVSNRFSGVPDRFSGSGSGTDFTLKISRVEAEDVGVYYCSQNTHVPPTFGQGTKVEIERTVAAPSVFIFPPSDEQLKSGTASVVCLLNNFYPREAKVQWKVDNALQSGNSQESVTEQDSKDSTYSLSSTLTLSKADYEKHKVYACEVTHQGLSSPVTKSFNRGEC
notes: Heterodimerized anti-glypican-3 IgG1; alteration in the GpH7-B3 chain only; also called He Ab
Regarding B1, the He/Con_2aH in the experiment with FcγRIIa H is 31.8 % of GpH7-A5/GpH7-B3/GpL16-k0 (=100). The He/Con_2b with FcγRIIb was 54.8 % of GpH7-A5/GpH7-B3/GpL16-k0 (=100).

B2: GpH7-A5/GpH7-B3 variant P238_01G/GpL16-k0 (antibody, human IgG1, kappa)
heavy 1: not shown
heavy 2: not shown
light: B1 light
notes: as for B1
As for B2, the He/Con_2aH in the experiment with FcγRIIa H is 37.3 % of GpH7-A5/GpH7-B3/GpL16-k0 (=100). In the experiment with FcγRIIb, the He/Con_2b was 56 % of GpH7-A5/GpH7-B3/GpL16-k0 (=100).

B3: GpH7-A5/GpH7-B3 variant S239_18N/GpL16-k0 (antibody, human IgG1, kappa)
heavy 1: not shown
heavy 2: not shown
light: B1 light
notes: as for B1
For B3, the He/Con_2aH with FcγRIIa H is 94.2 % of GpH7-A5/GpH7-B3/GpL16-k0 (=100). Also, the He/Con_2b in the experiment with FcγRIIb was 119 % of GpH7-A5/GpH7-B3/GpL16-k0 (=100).

B4: GpH7-A5/GpH7-B3 variant L235_09D/GpL16-k0 (antibody, human IgG1, kappa)
heavy 1: not shown
heavy 2: not shown
light: B1 light
notes: as for B1
As for B4, the He/Con_2aH in the experiment with FcγRIIa H was 75.8 % of GpH7-A5/GpH7-B3/GpL16-k0 (=100). For the same molecule, in the experiment with FcγRIIb, the He/Con_2b is 106 % of GpH7-A5/GpH7-B3/GpL16-k0 (=100).

B5: GpH7-A5/GpH7-B3 variant S267_01G/GpL16-k0 (antibody, human IgG1, kappa)
heavy 1: not shown
heavy 2: not shown
light: B1 light
notes: as for B1
Turning to B5, the He/Con_2aH with FcγRIIa H was 71.3 % of GpH7-A5/GpH7-B3/GpL16-k0 (=100). Also, in the experiment with FcγRIIb, the He/Con_2b was 105 % of GpH7-A5/GpH7-B3/GpL16-k0 (=100).

B6: GpH7-A5/GpH7-B3 variant P238_08L/GpL16-k0 (antibody, human IgG1, kappa)
heavy 1: not shown
heavy 2: not shown
light: B1 light
notes: as for B1
Consider B6, for which the He/Con_2aH with FcγRIIa H was 84.6 % of GpH7-A5/GpH7-B3/GpL16-k0 (=100). The He/Con_2b with FcγRIIb was 204 % of GpH7-A5/GpH7-B3/GpL16-k0 (=100).

B7: GpH7-A5/GpH7-B3 variant L235_20W/GpL16-k0 (antibody, human IgG1, kappa)
heavy 1: not shown
heavy 2: not shown
light: B1 light
notes: as for B1
As to B7, the He/Con_2aH in the experiment with FcγRIIa H was 118 % of GpH7-A5/GpH7-B3/GpL16-k0 (=100). The He/Con_2b in the experiment with FcγRIIb was 147 % of GpH7-A5/GpH7-B3/GpL16-k0 (=100).

B8: GpH7-A5/GpH7-B3 variant P238_20W/GpL16-k0 (antibody, human IgG1, kappa)
heavy 1: not shown
heavy 2: not shown
light: B1 light
notes: as for B1
Consider B8, for which, in the experiment with FcγRIIa H, the He/Con_2aH was 59.5 % of GpH7-A5/GpH7-B3/GpL16-k0 (=100). The He/Con_2b with FcγRIIb was 123 % of GpH7-A5/GpH7-B3/GpL16-k0 (=100).

B9: GpH7-A5/GpH7-B3 variant P238_19Q/GpL16-k0 (antibody, human IgG1, kappa)
heavy 1: not shown
heavy 2: not shown
light: B1 light
notes: as for B1
As to B9, in the experiment with FcγRIIa H, the He/Con_2aH was 56.4 % of GpH7-A5/GpH7-B3/GpL16-k0 (=100). Moreover, in the experiment with FcγRIIb, the He/Con_2b is 110 % of GpH7-A5/GpH7-B3/GpL16-k0 (=100).

B10: GpH7-A5/GpH7-B3 variant S267_03V/GpL16-k0 (antibody, human IgG1, kappa)
heavy 1: not shown
heavy 2: not shown
light: B1 light
notes: as for B1
With B10, the He/Con_2aH with FcγRIIa H is 50.8 % of GpH7-A5/GpH7-B3/GpL16-k0 (=100). For the same molecule, in the experiment with FcγRIIb, the He/Con_2b is 192 % of GpH7-A5/GpH7-B3/GpL16-k0 (=100).

B11: GpH7-A5/GpH7-B3 variant G237_20W/GpL16-k0 (antibody, human IgG1, kappa)
heavy 1: not shown
heavy 2: not shown
light: B1 light
notes: as for B1
Consider B11, for which, in the experiment with FcγRIIa H, the He/Con_2aH is 31.6 % of GpH7-A5/GpH7-B3/GpL16-k0 (=100). The He/Con_2b with FcγRIIb is 193 % of GpH7-A5/GpH7-B3/GpL16-k0 (=100).

B12: GpH7-A5/GpH7-B3 variant S267_14T/GpL16-k0 (antibody, human IgG1, kappa)
heavy 1: not shown
heavy 2: not shown
light: B1 light
notes: as for B1
With B12, the He/Con_2aH with FcγRIIa H was 63.3 % of GpH7-A5/GpH7-B3/GpL16-k0 (=100). Further, the He/Con_2b in the experiment with FcγRIIb was 104 % of GpH7-A5/GpH7-B3/GpL16-k0 (=100).

B13: GpH7-A5/GpH7-B3 variant P238_18N/GpL16-k0 (antibody, human IgG1, kappa)
heavy 1: not shown
heavy 2: not shown
light: B1 light
notes: as for B1
In the case of B13, the He/Con_2aH with FcγRIIa H was 53.5 % of GpH7-A5/GpH7-B3/GpL16-k0 (=100). For the same molecule, in the experiment with FcγRIIb, the He/Con_2b was 73.2 % of GpH7-A5/GpH7-B3/GpL16-k0 (=100).

B14: GpH7-A5/GpH7-B3 variant S267_07I/GpL16-k0 (antibody, human IgG1, kappa)
heavy 1: not shown
heavy 2: not shown
light: B1 light
notes: as for B1
With B14, the He/Con_2aH with FcγRIIa H was 34.7 % of GpH7-A5/GpH7-B3/GpL16-k0 (=100). In the experiment with FcγRIIb, the He/Con_2b is 192 % of GpH7-A5/GpH7-B3/GpL16-k0 (=100).

B15: GpH7-A5/GpH7-B3 variant G237_09D/GpL16-k0 (antibody, human IgG1, kappa)
heavy 1: not shown
heavy 2: not shown
light: B1 light
notes: as for B1
B15: the He/Con_2aH in the experiment with FcγRIIa H is 11.1 % of GpH7-A5/GpH7-B3/GpL16-k0 (=100). Moreover, the He/Con_2b in the experiment with FcγRIIb was 223 % of GpH7-A5/GpH7-B3/GpL16-k0 (=100).

B16: GpH7-A5/GpH7-B3 variant V266_06M/GpL16-k0 (antibody, human IgG1, kappa)
heavy 1: not shown
heavy 2: not shown
light: B1 light
notes: as for B1
For the molecule B16, in the experiment with FcγRIIa H, the He/Con_2aH is 83.9 % of GpH7-A5/GpH7-B3/GpL16-k0 (=100). Further, the He/Con_2b with FcγRIIb was 251 % of GpH7-A5/GpH7-B3/GpL16-k0 (=100).

B17: GpH7-A5/GpH7-B3 variant S239_06M/GpL16-k0 (antibody, human IgG1, kappa)
heavy 1: not shown
heavy 2: not shown
light: B1 light
notes: as for B1
Turning to B17, the He/Con_2aH with FcγRIIa H was 98.6 % of GpH7-A5/GpH7-B3/GpL16-k0 (=100). Also, the He/Con_2b with FcγRIIb was 101 % of GpH7-A5/GpH7-B3/GpL16-k0 (=100).
